Source: paper PMC8011978

Experiments:
[1] = biological target: LAdV-2 protein LH3 (lizard atadenovirus LAdV-2); experiment: cryo-EM structure
[2] = biological target: LAdV-2 penton base protein (lizard atadenovirus LAdV-2); experiment: cryo-EM structure

Substance | stoichiometry N [1] | stoichiometry N [2]
LAdV-2 protein LH3 (natural protein) | 3 | 
LAdV-2 penton base protein (natural protein) |  | 5
